Assay [1] concerns the target T1, HLA DP molecule DPB1*0401 (human).
T1 chain 1: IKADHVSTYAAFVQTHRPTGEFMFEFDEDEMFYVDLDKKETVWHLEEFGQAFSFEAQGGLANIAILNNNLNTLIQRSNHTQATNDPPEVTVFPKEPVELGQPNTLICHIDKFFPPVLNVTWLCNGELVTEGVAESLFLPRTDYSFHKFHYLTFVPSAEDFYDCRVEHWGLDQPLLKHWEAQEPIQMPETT
T1 chain 2: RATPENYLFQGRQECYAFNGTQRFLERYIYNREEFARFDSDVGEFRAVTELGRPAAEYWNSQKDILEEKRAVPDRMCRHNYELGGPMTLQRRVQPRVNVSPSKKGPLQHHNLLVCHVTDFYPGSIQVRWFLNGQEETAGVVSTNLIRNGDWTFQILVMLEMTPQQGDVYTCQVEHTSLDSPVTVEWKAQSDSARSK
Description: inhibition of radiolabeled peptide binding to purified HLA DP.

For assay [2], the target named is HLA DQ molecule DQB1*0202 (human). The assay is described as follows: inhibition of radiolabeled peptide binding to purified HLA class II.
Assay [3] deals with HLA DQ molecule DQB1*0602 (human). The assay is described as above.
Assay [4] concerns the target T2, HLA-DR DRB1*0301 (human).
T2 chain 1: not shown
T2 chain 2: not shown
The description is as above. The conditions noted are these: remark: other sources report otherwise.

The target in assay [5] is T3, HLA DQ molecule DQB1*0402 (human), P01909.
T3 chain 1: not shown
T3 chain 2: not shown
The assay is described as above.

In assay [6] the target is HLA DQ molecule DQB1*0502 (human). The assay is described as above.
For assay [7], the target named is HLA DQ molecule DQB1*0503 (human). The description is as above.
The target in assay [8] is HLA-DR molecules on the donors' cells (locus; alleles not stated). The assay is described as follows: cell-based or functional assay.
For assay [9], the target named is T4, HLA-DQ molecule DQB1*0501 (human).
T4 chain 1: not shown
T4 chain 2: not shown
Description: competition: inhibition of radiolabeled peptide binding to purified HLA.

Assay [10] addresses T5, HLA DP molecule DPB1*0201 (human).
T5 chain 1: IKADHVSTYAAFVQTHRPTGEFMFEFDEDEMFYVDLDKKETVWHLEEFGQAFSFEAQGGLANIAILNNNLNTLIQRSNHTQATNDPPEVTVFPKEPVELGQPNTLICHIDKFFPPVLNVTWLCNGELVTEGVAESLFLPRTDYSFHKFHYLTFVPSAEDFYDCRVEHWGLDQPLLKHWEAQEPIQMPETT
T5 chain 2: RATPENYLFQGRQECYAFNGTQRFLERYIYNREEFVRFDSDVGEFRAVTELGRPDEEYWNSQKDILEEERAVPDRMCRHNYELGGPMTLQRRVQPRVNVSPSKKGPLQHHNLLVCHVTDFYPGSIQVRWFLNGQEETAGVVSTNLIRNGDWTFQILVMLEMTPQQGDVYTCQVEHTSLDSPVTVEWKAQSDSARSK
Description: competition vs radiolabeled peptide, purified HLA-DP.

Assay [11] has as its target T1, HLA DP molecule DPB1*0401 (human). The assay is described as above.

IC50 and Region restriction(s) DR (ELISPOT response inhibited by locus-specific mAb) data for ten molecules are collected here from US20150004189A1.

As usually defined, the IC50 is the concentration needed to halve the response being measured. A lower IC50 goes with greater potency in that assay.

On to KVSDDITYVATATLP (modifications not checked) [Alt a 1 peptide, position 111 (Peptide ID 3324.0013)], for which the IC50 in assay [1] worked out at 1.61 µM. Turning to LDLAVNAAVDAGIHF (modifications not checked) [Pen ch 18 (291-305) peptide …, Peptide ID 3324.1331], the IC50 came to 0.361 µM in [2] and 0.48 µM in [3]. Turning to IASLFAAAGLAAAAP (modifications not checked) [Alt a 1 peptide, position 6, Peptide ID 3324.0015], the IC50 in [4] is 32.1 µM. For GIFLSVAAGNEAENA (modifications not checked) [Pen ch 13 (271-285) peptide …, Peptide ID 3324.1303], the IC50 worked out at 0.102 µM in assay [5], 50 µM in [6] and 50 µM in assay [7]. Consider GSDEKNLALSIKYNKEGDSM (peptide, UniProt Q41183 11-30, looked up) [Dac g 2 (11-30) epitope region, Orchard Grass], for which the Region restriction(s) DR (ELISPOT response inhibited by locus-specific mAb) in [8] was found to be 1 donors.

In assay [1], VADAYITLVTLPKSS (modifications not checked) [Alt a 1 peptide, position 143 (Peptide ID 3324.0016)] yielded an IC50 of 2.5 µM. In the case of AAAGLAAAAPLESRQ (modifications not checked) [Alt a 1 peptide, position 11, Peptide ID 3324.0017], in assay [9], the IC50 is 50 µM.

Turning to LDLAVNAAVDAGIHF (modifications not checked) [Pen ch 18 peptide, position 291, … (Peptide ID 3324.1331)], the IC50 in assay [10] came to 5.05 µM; in assay [11], 9.18 µM. Take DGVWEIKSDKPLKGPFNFRF (peptide, UniProt P14947 51-70, looked up) [Lol p 2 (51-70) epitope region, Rye Grass]: in [8], the Region restriction(s) DR (ELISPOT response inhibited by locus-specific mAb) stood at 3 donors. ITYVATATLPNYCRA (modifications not checked) [Alt a 1 peptide, position 116 (Peptide ID 3324.0014)]: the concentration for half-maximal inhibition (IC50) in [1] came to 2.99 µM.
